Assay results as given in the supplement of paper PMC9170038.

What follows are sequences tested on MS2 coat protein (assay: apparent KD of MS2 coat protein; higher = weaker reporter binding). Conditions: Eterna round: R107; input ligand: arginine 13.2 mM.
Method: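 RNA-MaP round R107: designed RNA switches with theophylline, tryptophan, arginine or FMN aptamers are transcribed on-chip within common flanks. They are titrated with SNAP-549-labelled MS2 coat protein in RNA-MaP buffer (100 mM Tris pH 7.5, 80 mM KCl, 4 mM MgCl2), without ligand or with the indicated ligand. Median apparent KD per design.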

| Sequence | apparent KD of MS2 coat protein |
| --- | --- |
| ACGUCCAGGUUAAUCGUGGACAUGGUCGAUACCAGUAUUUUAAUCUACCCUUGGCAGCGACAUGAGGAUCACCCAUGUGCGAUGA [XTheo A #15] | 11.7 nM |
| AAUCUGAUUGCGGCCGCCACUAAUUUUCCAUGAGUAUUGCAAUUACAUGAGGAUCACCCAUGUCAUAGGACCGGGCAUGACAUCU [theeternabot_sameState_MS2_Trp_B_45] | 104 nM |
| CGCGCGACAUGAGGAUCACCCAUGUUCCCUCGAGGACCGGUACGGCCGCCACUCGAGGACAUGAGCAUCAGCCAUGUACCGGUCA [Default title] | 28.8 nM |
| CUGUACAUCUCGGCCGCCACUGCUGACAUGGGAGUCACCCAUGUCCACAUGAGGAUCACCCAUGUCAGGACCGGGAGGUGUGCAG [SSTryp B #25] | 87.4 nM |
| UAUGCACAUGAGGAUCACCCAUGUAUGGAAGGAGCGGUGAAUGAACCAGGUAGGUCGCCAUGGUGAGGAUCAUCUAUGUAAUCGU [Exclusion - Arginine A (Freestyle 7)] | 38.9 nM |
| CCCAGUUAGAUCAAAGGAAUUAUACUCGAAGGAGCGUCAUAGUAGGCAGGUAGGUCGCGAGACAUGAGGAUCACCCAUGUAGAGA [azqmullin] | 30.3 nM |
| AACAUGAGGACGGAUACCAGUCACAUGAGGAUCACCCAUGUACAUGAGGAUCACCCAUGUGGCCCUUGGCAGCCGCAUGUGAUCA [Exclusion Theophylline B 4] | 124 nM |
| UGGUGUAGGGUAAAUAGGAUUAGUACAGAAGGAGCGCGAAUAAACGCAGGUAGGUCGCUGGAAUAAACAUGAGGAUCACCCAUGU [Same State Arginine A GF 27] | 17.4 nM |
| GGAUAGGACACGGCCGCCACUAGCUAGGAUACUAGCAACAUUUCCUCGCAUGAGGAUCACCCAUGUAGGACCGGGUGUCCUAUCG | 159 nM |
| AAAAUCCUCCAUGAGGAUCACCCAUGGGAAGGAGCGCCCGAAAGGGCAGGUAGGUCGCCCAUGAGGAUCACCCAUGGAACCUAAA [ArgAX 26 #DoubleMS2 #OpenEnded #AlternativeMS2] | 43.7 nM |
| UUUCAGUGGACGGCCGCCACUGAAGUCGAUACAAUCAUGUAGAACAUGAGGAUCACCCAUGUAGUCAGGACCGGGUCCAAUGACU [Tryp B SS t3] | 15.9 nM |
| UGCCGAGACGUGGAUUACCCGUGUACCGAAGGAGCGCCCGAAAGGGCAGGUAGGUCGCGGAGGACAUGAGGAUCACCCAUGUUGA | 32.8 nM |
| UUAGAUUGCCGAAGGAGCGAGAUAGCCUACAUGAGGAUCACCCAUGUAGAAACGGGCUGAUCUCAGGUAGGUCGCGGCAGGUAGC [Soaquatan] | 84.6 nM |
| UGAUUGAACGGAAGGAGCGUGUAAGAACAAGAACAUGAGGAUCACCCAUGUAUUAAUUUAACACAGGUAGGUCGCCGAGAGAUUG [11.D] | 16 nM |
| AGAUUCGACACGGCCGCCACUUGUGGUGGAUUAUCCAGUGUCGAACAUGAGGAUCACCCAUGUACAAGGACCGGGUGUUGAGUCU [XTryp B #19] | 53.3 nM |
| UCGUGUGUUUCGGAUACCAGUGAAAUCGAUACAUGAGGAUCACCCAUGUGAGAGGAUGUACACCCUUGGCAGCUGUCUGUAUCGG [asczmullin] | 40.6 nM |
| AUGUAAGUGGUGUCACUGUGGUCUAGUGAUACCAGUAUCGAAAGAUACCCUUGGCAGCGCUAGAACAUGAGGAUCACCCAUGUUU [#24 Exclusion-TheophyllineA] | 34.8 nM |
| GCUGCACAUUCGGCCGCCACUGCUGUUACAGGAAGCUAUAGCUCACAUGAGGAUCACCCAUGUCCCAGGACCGGGAAAGUAUGGA [theeternabot_sameState_MS2_Trp_B_39] | 41.2 nM |
| GGACUAACCAGAAGGAGCGACACAGCAGAAACUGCAAAUCCUCCGCACGAGGAUCACCCGUGUCAGGUAGGUCGCUGGUUAGUCG [ArgBX 28] | 37.4 nM |

| Sequence | apparent KD of MS2 coat protein |
| --- | --- |
| AGAUGAGUCACGGCCGCCACUCUUAUCAGGAUCACCCAUGGUUGACAUGAGGAUCACCCAUGUAUGAGGACCGGGUGAUGAGCAU [XTryp B #1] | 13.7 nM |
| ACCGCGGUAUCGGCCGCCACUUGUGGGUUAAAUCUGGUACAUGAGGAUCACCCAUGUGUCUCCUCGAGGACCGGGAUAGCGUGAC [Geaner] | 97.7 nM |
| AGUACAUGAGGAUCACCCAUGUAUCGGUACCGAGGACCGGUACGGCCGCCACUCGCAGGACAUGAGGAUCACCCAUGUGCAGCCG [SSTA DOUBLE!!! :-D #10] | 19.2 nM |
| UGUAUGGACUGAAGGAGCGGAAGAUAGCUUGAGGAUCACCCAAGUAAUAAGGCGAAAGCCUUCCAGGUAGGUCGCAGUCCAUACU | 31.4 nM |
| UGCCUAGACGUGGAUUACCCGUGUACCGAAGGAGCGCCCGAAAGGGCAGGUAGGUCGCGGAGGACAUGAGGAUCACCCAUGUUUG | 44.8 nM |
| UAUCGUCAGACGGCCGCCACUAGUACAUGAGGAUCACCCAUGUAGGUCCUAGAUUCCUCAUGAUCUAGGACCGGGUCUGACGAAU [(Trp1)-(Ms2)-(T)'-(M)'-(Trp2)_Design16] | 21.4 nM |
| UAGAGCCAGUCGGCCGCCACUCUCCAUAUGUGAGCCUUUAAGUUCUACAUGAGGAUCACCCAUGUGAGGACCGGGACCGAAUCUA [theeternabot_exclusion_MS2_Trp_B_18] | 39.7 nM |
| CCGAACAUGAGGAUCACCCAUGUUAGGGAUACCAGCCCAGACAUGGGCCCUUGGCAGCUCUAUAGCUGACGAAAGUCAGCAUCGG [#14 SameState-TheophyllineA] | 34.9 nM |
| UGUAUGGACUGAAGGAGCGCCUCAAAAUAGCAUGAGGAUCACCCAUGCAAGGCGAAAGCCGGGCAGGUAGGUCGCAGUCCAUACU [ArgBX 3] | 13.5 nM |
| GCUCGUUGCAUGGAUACCAGUUGAUAGGCCGCCUCCGGAUACAUGAGGAUCACCCAUGUCAACCCUUGGCAGCCACCCAAUAGGG [theeternabot_exclusion_MS2_Theo_B_27] | 10.4 nM |
| UGUAUGGACUGAAGGAGCGCCUCAAAAUAACAUGAGGAUCACCCAUGUGGCGAAAGCCUUGGGCAGGUAGGUCGCAGUCCAUACU [ArgBX 1 #StaticStem] | 62 nM |
| CACAUGAGGAUCACCCAUGUCUGAACUGAAGGAGCGCUAAAUAAGGCAGGUAGGUCGCGGAAUCCCGGGUGCAUAUGCACCCGGG [9.aB] | 14.6 nM |
| AAAAUCCUAUCUGAGGAUCACCCAGGUGAAGGAGCGCCCGAAAGGGCAGGUAGGUCGCACCUGAGGAUCACCCUGGUAAACCUAA [ArgEX 21 #DoubleMS2 #OpenEnded] | 68.8 nM |
| UGAUCCUAGACUGAUACCAGUCAUGAGUACAUGAGGAUCACCCAUGUCCAGGGACUCAAUGACCCUUGGCAGCAGAACCUAGUUC [Theo B SS t7] | 155 nM |
| AUUGUGAAGUCGGCCGCCACUGCAUAGUUUAACCACAUGUAACAUGAGGAUCACCCAUGUAAUGACAGGACCGGGACAAUAGUAA [JR_SSTryptoB_Sub023] | 22.2 nM |
| UCGUCAGGCGCGGCCGCCACUGCGGUGAUGUGACAUGAGGAUCACCCAUGUUGUCAUGUGGCACAUAGGACCGGGUGCCUGGCGA [Exclusion - Tryptophan B Attempt #5 (HarryS)] | 8.16 nM |
| AAGCUUCGCAUAGGAAAACUAUGUGAAGCUCGAGGACCGGUACGGCCGCCACUCGUCCUCAACAUGAGGAUCACCCAUGUAAUAA [Mat - Exclusion - Trytophan A - D2] | 20.7 nM |
| UAGAAACGUACGGCCGCCACUCGGAAUUGGCUCAGACCAUACGUACAUGAGGAUCACCCAUGUUAGAGGACCGGGUAUAAUCUAA [theeternabot_sameState_MS2_Trp_B_46] | 18.5 nM |
